Here are results for three substances from article PMC3589475, “Large-Scale Functional Purification of Recombinant HIV-1 Capsid” (PLoS ONE, 2013).

pKd: −log10 of the molar value.

Experiment [1] addresses HIV-1 capsid (CA) (Human immunodeficiency virus 1) (UniProt O93182). The settings on record: cited from earlier work.
Experiment [2] addresses quadruple mutant (A14C/E45C/W184A/M185A) CA monomer (CA 4Mu) (HIV-1 (NL4-3 strain)). The experiment can be described thus: AUC; sedimentation velocity, cross-linked CA 4Mu hexamer at 4.13, 8.25 and 16.5 µM (as monomers), 50 mM sodium phosphate pH 7.5, 25°C, 45,000 rpm, no reducing agent.
Experiment [3] has as its target wild-type HIV-1 capsid protein (WT CA) (HIV-1 (pLAI.2)) (UniProt P03348). Description: AUC; sedimentation velocity, WT CA at 0.94, 1.88, 3.75 and 7.5 µM, 50 mM sodium phosphate pH 7.5, 25°C, 45,000 rpm; monomer to dimer, at high protein concentration.

On to HIV-1 capsid (CA) (from UniProt O93182), for which the pKd (usually −log10 of the Kd, conventionally taken in molar units) in experiment [1] was 4.85.

As for “quadruple mutant (A14C/E45C/W184A/M185A) CA monomer (CA 4Mu) (natural protein)”, in experiment [2], the percent in hexameric form was found to be 94% and the stoichiometry N – broadly, a count of units in the complex or per binding partner – was found to be 6.

The substance “wild-type HIV-1 capsid protein (WT CA) (from UniProt P03348 133-363) (natural protein)” returned a stoichiometry N in experiment [3] of 2.
